This is an account of results in patent US20220049236A1 (YEDA RESEARCH AND DEVELOPMENT, published 2022).

For test [1], the target named is T1, Heat shock 70 kDa protein 1A/B (human, UniProt P0DMV9 2-641).
T1 construct: also called Heat shock 70 kDa protein 1B; HSPA1B
As to the kind of experiment: IP from HDF supernatant, LFQ mass spectrometry; ratio against Fc control.

Test [2] has as its target T2, Heat shock protein HSP 90-beta (human, UniProt P08238 2-724).
T2 construct: also called HSP90AB1
Described as above.

The target in test [3] is T3, 60 kDa heat shock protein, mitochondrial (human, UniProt P10809 27-573, limits assumed).
T3 construct: also called HSPD1; HSP60
T3 sequence (P10809 27-573 limits assumed): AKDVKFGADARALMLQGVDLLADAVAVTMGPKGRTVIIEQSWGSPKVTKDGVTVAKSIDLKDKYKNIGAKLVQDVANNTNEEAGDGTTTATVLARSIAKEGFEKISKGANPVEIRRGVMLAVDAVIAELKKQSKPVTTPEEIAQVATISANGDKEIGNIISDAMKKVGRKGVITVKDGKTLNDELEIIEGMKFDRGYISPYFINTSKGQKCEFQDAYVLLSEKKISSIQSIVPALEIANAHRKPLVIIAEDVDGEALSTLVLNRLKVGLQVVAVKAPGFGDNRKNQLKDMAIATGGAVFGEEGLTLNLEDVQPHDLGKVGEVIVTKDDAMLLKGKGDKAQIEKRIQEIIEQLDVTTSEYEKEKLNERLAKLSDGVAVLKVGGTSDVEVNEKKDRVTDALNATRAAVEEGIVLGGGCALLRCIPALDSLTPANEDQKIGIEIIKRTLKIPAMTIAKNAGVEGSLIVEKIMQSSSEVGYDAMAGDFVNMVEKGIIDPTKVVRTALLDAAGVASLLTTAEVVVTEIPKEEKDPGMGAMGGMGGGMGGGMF
The description is as above.

The target of test [4] is T4, Heat shock protein HSP 90-alpha (human, UniProt P07900 2-732).
T4 construct: also called HSP90AA1
Described as above.

The target in test [5] is T5, Filaggrin-2 (human, UniProt Q5D862 1-2391, limits assumed).
T5 construct: also called FLG2
T5 sequence (Q5D862 whole entry): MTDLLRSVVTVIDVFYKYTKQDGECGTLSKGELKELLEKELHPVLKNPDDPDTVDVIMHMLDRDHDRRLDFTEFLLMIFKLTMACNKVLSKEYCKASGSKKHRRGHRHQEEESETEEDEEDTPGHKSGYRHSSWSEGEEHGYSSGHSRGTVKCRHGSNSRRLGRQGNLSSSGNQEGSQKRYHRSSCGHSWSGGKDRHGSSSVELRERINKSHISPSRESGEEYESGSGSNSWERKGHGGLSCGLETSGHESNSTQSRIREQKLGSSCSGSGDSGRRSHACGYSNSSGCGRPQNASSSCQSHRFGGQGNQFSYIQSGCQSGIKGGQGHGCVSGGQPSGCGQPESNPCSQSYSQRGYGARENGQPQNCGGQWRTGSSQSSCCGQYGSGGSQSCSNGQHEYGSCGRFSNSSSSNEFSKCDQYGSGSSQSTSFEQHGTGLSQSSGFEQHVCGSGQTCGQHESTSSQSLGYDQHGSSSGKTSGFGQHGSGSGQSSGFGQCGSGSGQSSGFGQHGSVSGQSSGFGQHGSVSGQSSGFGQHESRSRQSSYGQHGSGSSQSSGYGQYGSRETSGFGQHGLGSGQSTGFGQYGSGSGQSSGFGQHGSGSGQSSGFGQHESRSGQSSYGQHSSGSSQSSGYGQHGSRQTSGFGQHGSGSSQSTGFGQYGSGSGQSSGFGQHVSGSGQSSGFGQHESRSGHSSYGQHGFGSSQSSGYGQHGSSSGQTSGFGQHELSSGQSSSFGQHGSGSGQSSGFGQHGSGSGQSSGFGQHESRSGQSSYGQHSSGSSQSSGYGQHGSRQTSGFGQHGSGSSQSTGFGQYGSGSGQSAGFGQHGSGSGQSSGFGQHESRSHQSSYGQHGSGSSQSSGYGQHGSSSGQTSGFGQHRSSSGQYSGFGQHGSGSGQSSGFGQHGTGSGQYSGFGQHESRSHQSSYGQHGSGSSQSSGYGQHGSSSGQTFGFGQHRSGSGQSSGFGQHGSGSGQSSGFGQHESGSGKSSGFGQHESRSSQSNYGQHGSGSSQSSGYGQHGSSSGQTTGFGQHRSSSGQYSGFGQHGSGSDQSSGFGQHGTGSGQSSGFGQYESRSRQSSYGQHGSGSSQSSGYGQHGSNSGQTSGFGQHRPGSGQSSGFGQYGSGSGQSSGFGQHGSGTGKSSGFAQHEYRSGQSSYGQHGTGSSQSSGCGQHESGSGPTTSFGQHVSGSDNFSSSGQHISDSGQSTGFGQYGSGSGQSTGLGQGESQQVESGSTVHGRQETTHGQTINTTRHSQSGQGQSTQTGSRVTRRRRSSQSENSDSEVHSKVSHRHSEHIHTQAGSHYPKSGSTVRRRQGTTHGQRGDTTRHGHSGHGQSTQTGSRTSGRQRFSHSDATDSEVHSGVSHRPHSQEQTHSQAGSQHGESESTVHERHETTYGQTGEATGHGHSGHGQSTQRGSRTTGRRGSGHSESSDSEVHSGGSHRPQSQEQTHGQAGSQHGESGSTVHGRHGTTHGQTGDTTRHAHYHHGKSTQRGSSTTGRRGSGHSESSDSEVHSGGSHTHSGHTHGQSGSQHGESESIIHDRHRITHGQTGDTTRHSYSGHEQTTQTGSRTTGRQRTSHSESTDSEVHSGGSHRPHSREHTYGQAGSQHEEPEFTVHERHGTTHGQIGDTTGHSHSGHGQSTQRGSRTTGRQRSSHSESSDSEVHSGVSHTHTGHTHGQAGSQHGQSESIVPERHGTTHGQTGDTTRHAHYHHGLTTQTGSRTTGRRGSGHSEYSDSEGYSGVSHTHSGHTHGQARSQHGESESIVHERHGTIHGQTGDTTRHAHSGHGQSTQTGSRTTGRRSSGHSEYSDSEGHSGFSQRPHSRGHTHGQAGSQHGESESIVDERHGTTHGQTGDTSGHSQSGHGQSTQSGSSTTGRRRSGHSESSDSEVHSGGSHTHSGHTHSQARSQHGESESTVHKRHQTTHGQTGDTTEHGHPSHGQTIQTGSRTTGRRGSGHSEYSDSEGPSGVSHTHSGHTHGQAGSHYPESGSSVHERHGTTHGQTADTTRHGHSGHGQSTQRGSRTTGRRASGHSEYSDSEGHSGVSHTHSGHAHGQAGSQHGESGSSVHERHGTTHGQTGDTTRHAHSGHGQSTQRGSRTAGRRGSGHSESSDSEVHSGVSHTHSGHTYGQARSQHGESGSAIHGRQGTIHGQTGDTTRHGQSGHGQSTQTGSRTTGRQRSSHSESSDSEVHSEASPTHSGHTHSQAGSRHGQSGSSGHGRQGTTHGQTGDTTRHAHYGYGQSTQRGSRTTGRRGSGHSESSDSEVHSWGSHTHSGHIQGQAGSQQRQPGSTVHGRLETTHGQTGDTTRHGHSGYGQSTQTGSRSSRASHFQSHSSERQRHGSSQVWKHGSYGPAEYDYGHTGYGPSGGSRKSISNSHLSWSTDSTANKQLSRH
Described as above.

The target of test [6] is T6, Heat shock cognate 71 kDa protein (human, UniProt P11142 2-646).
T6 construct: also called HSPA8
T6 sequence (P11142 2-646 limits assumed): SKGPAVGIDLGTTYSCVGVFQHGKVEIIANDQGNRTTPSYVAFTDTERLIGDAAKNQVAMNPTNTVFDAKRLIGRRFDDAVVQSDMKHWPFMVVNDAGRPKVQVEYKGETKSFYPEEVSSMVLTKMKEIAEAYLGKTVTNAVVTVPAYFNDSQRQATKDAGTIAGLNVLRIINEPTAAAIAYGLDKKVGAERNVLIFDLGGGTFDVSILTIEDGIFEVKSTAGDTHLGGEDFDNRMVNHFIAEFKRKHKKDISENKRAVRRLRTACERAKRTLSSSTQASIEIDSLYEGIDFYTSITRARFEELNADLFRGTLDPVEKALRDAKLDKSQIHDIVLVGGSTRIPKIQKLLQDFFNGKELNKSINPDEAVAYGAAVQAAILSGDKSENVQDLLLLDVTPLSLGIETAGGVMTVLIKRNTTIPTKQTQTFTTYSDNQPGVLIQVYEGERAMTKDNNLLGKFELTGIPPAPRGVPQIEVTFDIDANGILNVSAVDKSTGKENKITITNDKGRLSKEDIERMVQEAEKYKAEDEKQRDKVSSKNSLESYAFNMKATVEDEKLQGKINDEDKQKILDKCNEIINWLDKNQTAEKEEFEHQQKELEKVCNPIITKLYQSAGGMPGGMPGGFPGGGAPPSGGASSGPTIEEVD
Described as above.

Test [7] addresses T7, Hornerin (human, UniProt Q86YZ3 1-2850, limits assumed).
T7 construct: also called HRNR
Described as above.

For test [8], the target named is T8, LOX catalytic domain (catalytic domain of human LOX, 169-417) (human, UniProt P28300 170-417).
T8 construct: Expressed from pET28 in E. coli BL21 SHuffle, purified on HisTrap and labelled through its His tag for MST
T8 sequence: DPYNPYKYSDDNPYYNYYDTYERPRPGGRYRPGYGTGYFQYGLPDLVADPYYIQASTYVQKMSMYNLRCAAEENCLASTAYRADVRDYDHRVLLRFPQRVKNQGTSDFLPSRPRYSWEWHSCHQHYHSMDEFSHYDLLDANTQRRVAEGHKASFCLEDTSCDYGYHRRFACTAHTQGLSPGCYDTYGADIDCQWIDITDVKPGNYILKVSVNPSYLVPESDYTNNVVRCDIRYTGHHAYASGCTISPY
As to the kind of experiment: ELISA, plate coated with LOX catalytic domain. Here is the method: A ninety-six-well plate (Nunc) was coated with LOX-catalytic domain, HSP70 or BSA at 10 μg/mL. After blocking with 2% BSA in PBS, the plate was incubated with Fc and Fc-LPD for 1 hour at 37° C. Bound antibodies were detected by peroxidase-conjugated antibody goat anti-human (Jackson ImmunoResearch). EC₅₀ was calculated with GraphPad Prism from […] curve fitting analysis.
The pYD5-Fc-LPD plasmid was used as a template in order to create point mutations in the three N-glycosylated sites N81, 97, 144 in the LPD, which are the N346, 362, 409 in our Fc-LPD construct with Q SEQ ID NO: 11. The mutations were performed with site-directed mutagenesis according to kit manufacturer instructions. EC₅₀ of generated Fc-LPD N346, 362, 409Q inhibitor was measured by ELISA (FIG. 1C) ranged from 10 to 2000 nM against the LOX catalytic domain (EC₅₀=58 nmol/L).
(An ELISA detects its analyte on a solid surface through an enzyme-linked reagent.)

T1 sequence (P0DMV9 2-641 limits assumed): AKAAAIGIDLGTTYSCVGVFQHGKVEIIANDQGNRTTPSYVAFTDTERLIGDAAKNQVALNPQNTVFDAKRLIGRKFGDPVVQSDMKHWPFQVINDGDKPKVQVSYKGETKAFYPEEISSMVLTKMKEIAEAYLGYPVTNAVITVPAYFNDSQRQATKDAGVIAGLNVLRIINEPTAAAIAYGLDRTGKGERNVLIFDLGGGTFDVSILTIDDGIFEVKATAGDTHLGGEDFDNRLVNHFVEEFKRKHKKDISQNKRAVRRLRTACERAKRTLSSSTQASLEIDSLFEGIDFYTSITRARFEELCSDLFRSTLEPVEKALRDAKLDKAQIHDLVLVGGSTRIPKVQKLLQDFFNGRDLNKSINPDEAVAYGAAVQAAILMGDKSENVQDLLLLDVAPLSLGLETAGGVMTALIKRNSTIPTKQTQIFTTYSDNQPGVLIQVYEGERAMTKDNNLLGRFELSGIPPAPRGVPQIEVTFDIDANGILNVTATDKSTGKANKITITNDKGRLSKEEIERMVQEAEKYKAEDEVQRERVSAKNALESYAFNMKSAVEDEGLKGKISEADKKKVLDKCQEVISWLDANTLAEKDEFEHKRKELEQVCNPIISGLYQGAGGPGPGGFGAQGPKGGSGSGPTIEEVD
T2 sequence (P08238 2-724 limits assumed): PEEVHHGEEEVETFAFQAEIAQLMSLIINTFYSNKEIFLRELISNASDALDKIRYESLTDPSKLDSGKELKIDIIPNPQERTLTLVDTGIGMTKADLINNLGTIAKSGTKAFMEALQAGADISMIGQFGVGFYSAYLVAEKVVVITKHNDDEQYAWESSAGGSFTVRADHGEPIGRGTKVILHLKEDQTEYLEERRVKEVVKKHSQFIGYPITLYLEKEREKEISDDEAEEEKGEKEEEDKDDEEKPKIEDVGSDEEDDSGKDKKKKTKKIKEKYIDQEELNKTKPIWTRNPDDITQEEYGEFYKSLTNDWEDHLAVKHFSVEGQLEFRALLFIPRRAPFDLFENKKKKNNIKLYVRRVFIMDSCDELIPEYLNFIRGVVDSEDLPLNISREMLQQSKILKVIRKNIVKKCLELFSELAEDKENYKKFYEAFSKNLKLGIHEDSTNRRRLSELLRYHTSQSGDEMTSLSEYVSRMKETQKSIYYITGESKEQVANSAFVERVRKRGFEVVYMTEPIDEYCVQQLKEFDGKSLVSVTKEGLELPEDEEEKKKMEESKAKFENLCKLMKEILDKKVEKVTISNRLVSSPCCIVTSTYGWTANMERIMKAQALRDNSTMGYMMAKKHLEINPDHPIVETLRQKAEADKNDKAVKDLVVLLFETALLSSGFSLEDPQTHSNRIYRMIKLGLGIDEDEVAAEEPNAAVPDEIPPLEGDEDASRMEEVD

B1: Fc-LPD N346, 362, 409Q (Fc fusion)
chain: APPAAGQQQPPREPPAAPGAWRQQIQWENNGQVFSLLSLGSQYQPQRRRDPGAAVPGAAQASAQQPRTPILLIRDQRTAAARTRTAGSSGVTAGRPRPTARHWFQAGYSTSRAREAGASRAEQQTAPGEVPALSNLRPPSRVDGMVGD
notes: Fc-LPD with the three N-glycosylation sites N81, 97, 144 of the LPD (N346, 362, 409 in the construct) changed to Q by site-directed mutagenesis of pYD5-Fc-LPD; also called non-glycosylated form
On to B1, for which the “Ratio Fc-LPD-N346, 409, 456Q:Fc” value in test [1] was 30; in test [2], 1.8; in test [3], 0.1; in test [4], 0.2; in test [5], 0; in test [6], 0.9. In addition, the “Ratio Fc-LPD-N346, 409, 456Q:Fc” value in test [7] is 0.2. Besides, the EC50 in test [8] was 58 nM.

Broadly, the EC50 is the concentration giving half of the maximal effect. A higher EC50 goes with weaker potency.
